The text below walks through data of patent US20200024331A1 (published 2020).

Experiment [1] has as its target Chikungunya virus E1 protein (Chikungunya virus, UniProt Q8JUX5 810-1224). The experiment is described as follows: SPR. A general note: SPR reads the build-up and loss of mass on a sensor chip optically.
Experiment [2] has as its target Chikungunya virus-like particles (CHIKV VLP) (Chikungunya virus, UniProt Q8JUX5 810-1248; Q8JUX5 326-748). Kind of experiment: SPR.

One may read the Kd as a measure of binding affinity in units of concentration. A low value points to a tighter complex.

Sequence of Chikungunya virus E1 protein (Q8JUX5 810-1224): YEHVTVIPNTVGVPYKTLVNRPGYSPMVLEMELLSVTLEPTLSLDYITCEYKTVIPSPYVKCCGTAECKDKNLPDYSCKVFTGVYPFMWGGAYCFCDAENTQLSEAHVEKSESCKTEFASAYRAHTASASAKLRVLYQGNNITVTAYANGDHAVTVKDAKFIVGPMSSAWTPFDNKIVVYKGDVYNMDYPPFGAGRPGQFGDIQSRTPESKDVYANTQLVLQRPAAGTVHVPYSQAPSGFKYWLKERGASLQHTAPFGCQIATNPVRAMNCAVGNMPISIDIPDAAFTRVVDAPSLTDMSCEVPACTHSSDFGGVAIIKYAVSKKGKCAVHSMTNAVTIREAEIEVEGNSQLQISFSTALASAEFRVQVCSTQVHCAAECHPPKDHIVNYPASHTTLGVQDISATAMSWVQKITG
Sequence of Chikungunya virus-like particles (CHIKV VLP) (Q8JUX5 810-1248, chain 1 of 2): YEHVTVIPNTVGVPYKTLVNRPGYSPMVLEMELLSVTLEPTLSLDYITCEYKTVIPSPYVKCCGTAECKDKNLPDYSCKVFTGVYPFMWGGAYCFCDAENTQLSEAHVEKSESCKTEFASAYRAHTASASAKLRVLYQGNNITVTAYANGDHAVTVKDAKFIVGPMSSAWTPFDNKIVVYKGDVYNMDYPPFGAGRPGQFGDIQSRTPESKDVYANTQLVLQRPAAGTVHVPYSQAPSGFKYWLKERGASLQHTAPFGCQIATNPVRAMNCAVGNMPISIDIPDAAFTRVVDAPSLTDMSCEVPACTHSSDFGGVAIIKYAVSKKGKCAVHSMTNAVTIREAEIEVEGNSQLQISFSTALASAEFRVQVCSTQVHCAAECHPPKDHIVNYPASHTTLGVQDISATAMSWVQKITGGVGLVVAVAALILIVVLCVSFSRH
Sequence of Chikungunya virus-like particles (CHIKV VLP) (Q8JUX5 326-748, chain 2 of 2): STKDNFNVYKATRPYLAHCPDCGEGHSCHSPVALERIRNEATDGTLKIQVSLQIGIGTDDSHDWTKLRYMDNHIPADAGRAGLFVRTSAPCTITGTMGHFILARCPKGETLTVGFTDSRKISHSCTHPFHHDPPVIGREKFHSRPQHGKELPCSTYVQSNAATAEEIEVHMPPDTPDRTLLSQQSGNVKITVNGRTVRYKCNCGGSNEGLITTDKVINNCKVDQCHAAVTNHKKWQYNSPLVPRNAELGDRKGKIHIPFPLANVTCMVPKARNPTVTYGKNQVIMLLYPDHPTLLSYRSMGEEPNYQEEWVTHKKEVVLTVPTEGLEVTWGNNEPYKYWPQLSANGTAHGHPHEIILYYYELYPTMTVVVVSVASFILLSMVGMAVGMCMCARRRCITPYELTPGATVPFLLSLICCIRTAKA

B1: CC3 (VHH)
VHH: EVQLQASGGGSVQAGGSLRLSCVTSQNLFEYYTMGWYRQVPGSQRERVALINNGGSTVAGSVEGRFTISRDHAKNSVYLQMNYLKPEDSAVYYCRAFGPADYWGQGTQVTVSS
Regarding B1, the Kd in experiment [1] stood at 3.04 nM; in experiment [2], 1.2 nM.

B2: CA6 (VHH)
VHH: EVQLQASGGGLVRPGGSLRLSCAASGSFFTIDTMAWYRQAPGRRRELVARQSSGRSPDYDDSVVGRFTISRDIAKSSVYLQMDSLQPEDTALYYCYQSIRPWPGSSYEAHWGQGIQVIVSS
On to B2, for which, in experiment [1], the Kd is 0.132 nM. This lies in the sub-nanomolar range.
